Experimental data published in article PMC3538841.

Experiments:
Experiment in all cases: negative stain EM reconstruction
[1] = molecular target: A/Hong Kong/1/1968 (H3N2) HA (influenza A virus A/Hong Kong/1/1968 (H3N2)) (UniProt Q91MA7)
[2] = molecular target: A/Netherlands/219/2003 (H7N7) HA (influenza A virus A/Netherlands/219/2003 (H7N7)) (UniProt Q6VMK1)
[3] = molecular target: A/South Carolina/1/1918 (H1N1) HA (influenza A virus A/South Carolina/1/1918 (H1N1)) (UniProt Q9WFX3)
[4] = molecular target: Wisc66/H9 HA (influenza A virus, Wisc66 (H9))

Measured: stoichiometry N (Fabs per HA trimer)

Fab CR9114
3: all assays above
